Results from article PMC11623929.

Target: WDR5-Luc-FKBP12

decrease of luciferase activity of the WDR5 fusion in HEK293 cells, rapamycin overnight, 10- or 100-fold excess of the VHL-FRB plasmid (bridged by rapamycin): 50.2%
Substance: VHL-FRB (from UniProt P42345 2019-2112)
